test: soluble on expression in E. coli; label from the status in PepcDB or PDB records

Row | Sequence | soluble on expression in E. coli
1 | MTAPISLRLVVEARDLPPMLPDVLRERFDRGETGVAWAPEHDASVGAPLGVLGGPEATAWPFAISEPPPVNVPALCAVGPCWWYPSFGAVIGNDGALYNATVGEARHGSADLSAIPGVASGGTRLVPPQDAPVLDGGAVFMPWGAGFNYGHFVIDALPSILALEQAGLLHDTPLLAPRLTDWQRELIAMATPGVRLQEVDAPAVRLGRAVFATSMDHFLHHPNGLLATLAERVTANAPKGAGARRVYLSRRGQSMRVMVGEAAFERALQARGFVIVRPETLGARAQVALMRDAEIIVGASGAALANAVFLPRGARVIEIQPTNFTSQWVRAACRQVGVEWRGYVCASPCPAHAAPLLARLRRGFKFAFRPDLDDLLSFVDAALLEHHHHHH | not soluble
2 | MRTIDDRIVHSLNTTVPTASFSGKVDATQTCKELYESLMEAHLSRDKAIKSCIKETSAVVSQLREERAKDSDNLSVIKQLRKEQTKLKLMQSELNVEEVVNDRSLKVFNERCRIHYTPPKIK | soluble
3 | MAHHHHHHMFKQRDNEYHPPMTVDPSGGGVTTSAGVFGEVGMGNVASPFLDGPAAVAGSRKRGRDIRSLDRFRAVVYGEDGFRRLHAMVARNPVLMYPPDGIEAARARVMVRKAELQSQLRSALGHREHNRNPADNGDDDVFALFEARRRAESDVHPATEGEEVPRQPASEHAPLPSSLASIRQDEELATYHHKQLDSYLRLLYEFNHATFVKLPMEDTLRLLSRCGKEAVAHIVEYETQVRLRRQSRIRDLNELRQEQAALEERRLAIDDAEQARLVQSAELRQAELDLELDNGVVKAEPPDDGSADEDVKVILETSSSSVHFASLPAGDSPEENMDGIVMAVEDEGIQYT | not soluble
4 | MALRDLSSSLSSSSSPELHVLAVDDSFVDRKVIERLLKISACKVTTVESGTRALQYLGLDGDNGSSGLKDLKVNLIVTDYSMPGLTGYELLKKIKESSALREIPVVIMSSENIQPRIEQCMIEGAEEFLLKPVKLADVKRLKELIMRGGEAEEGKTKKLSPKRILQNDIDSSPSSSSTSSSSSSHDVSSLDDDTPSSKRIKLESRG | not soluble
5 | MSLRLRTLKDLDQAALLLARACALLLDDNTDVPDLRQVIFKCVPKNRLAESVSKVNELARPQNNNFHDEMVEQYGRVKRFLPAVLRDLHFRAAPAGEHVLAAIHYLAELNGSKKRILDDAPEHIITGPWKRLVYDAEGRIQRAGYSLCLLERLQDALRRRDIWLENSDRWGDPREKLLQGEEWQTQRIPVCRALGHPVDGRKGVQQLAIQLDETWKAVASRFEKNAEVHICNEGKYPSLTISCLEKQEEPPSLLRLNNRIKQLLPPVDLTELLLEIDAQTGFTHEFAHVSESGARAQDLHISLCAVLMAEACNIGLEPLIKHNIPALTRHRLSWVKQNYLRAETLVSANARLVDFQSTLELAGRWGGGEVASADGMRFVTPVKTINSGSNRKYFGSGRGITWYNFVSDQYSGFHGIVVPGTLRDSIFVLEGLLEQQTGLNPVEIMTDTAGSSDIIFGLFWLLGYQFSPRLADAGEAVFWRVNKSANYGVLDKLARGYADLSKAESQWDEMMRTAGSLKLGTIHASELIRSLLKSSRPSGLAQAIMEVGRVNKTLYLLNYIDDEDYRRRILTQLNRGEGRHAVARAICYGQRGEIRKRYREGQEDQLGALGLVTNAVVLWNTLYMEEALSWMRRNGEEIIDEDIARLSPLMHGHINMLGHYTFTLPEDILKGELRALNEGHHHHHH | not soluble
6 | MQHIYVPYHVRDHPMSSVCERFERELRRGAIQLEVICLLENERYGYEIVKKLKESGFRVEEGTLYPLLRRLEGEGILSSRWSTDDTRPRKYYTVTDYGKRVRKKWLELFRSINRSLEDLTEVDQ | not soluble
7 | SADLLALLRDFTIHNREIKEDGDDIIFDNYAWNKSSKTNYIVWGTDKHGLIKEYYPLESIVYFLKNINLSHAQFVRQAAANGIFGIRLPDRQKLLDYLQGKITTCEAIDHSVPVDISQRRLVILQNNDKDPNDATGEPSSKRLCLEDGNSIDMANEGHSTDQQNEINLKESQRLAAKLQLPPGGKMTSDLYQNDPSKASTLIEHIPVDKIQMLRAKFRANHQQTIKPDESDVVPDKGKPLKSAIDAEEPIKPFVSKIQLGVTKNFVKEIMAREYTWRTRTTVLESHGKQFFDSVVLGTLKSVKLKEENLQHHTQRIGPHTPFPASNGHAGNVQQPAQAPTHYSRYDQERFTGAGQDTAGFKIDTMGTYHGKGLSSMMTDGSQANLTSRDPRANRQPAPRGLPPVSPGATPVDTGKGVTKANRAKSRVPIIIIPAAPTSLITMYNAKEILQDLRFEKTEDKKANGCRRDNDLLIQRLKSDGRTVPYRVIDQPNKLNREDWDRVVAVFVQGPAWQFKNWPIGSDPVEIFSLVKAFHLKYAHMPLHPDVKKWNVHVIQLDDHRHLDKANFQQIWDILDRHMV | soluble
8 | MRNILATILLVVMLFLVACTGNNNQLVSQSELVPENTPVDGNQIKAPEETLSSDSMYSDYNGKNIKFRFPKTWEMTEYQADYEYFIRFNLPTKNKNRAPNQVTIVISDMAEKSKNFDYQNKNIFEQYIENDNTMDISNITVDGCNGYKAVSIESETLYISFEKGDLRYDLIFMSDEGEFLELLPEVESMISSISTY | not soluble
9 | MSPTLSILIPVYKRDCRRLLEELYKQAEELSVGYEIILGDDCSGEPYTSQYIAYEQEGLCRLVSAEENMGAGRLRNRLAEEAQGEQLLILDSDTLPASPDFIERYLRHASGTTVVCGGFVYPPKSTNPLRQRYGAEVESRSAEERARKPHSGFISMAFMIPRKQMLATGFPPNMGMGYEDILFGERLRQAGIPILHIDNPVEHYHCDTAEGFLATTRSYLDNLYCHREELAELVSLLRAYNLLKRLHLMRMVAALWPLIRSSLEKQLTGAKPSLLLFSLYKLLYVASLSLVCAEKS | not soluble
10 | SDERHKTDIAPISDKVLDAWEKVKFYQYKFKDAVDEKGEEARYHFGVIAQQIVKVFEDEGLSAFDYGLVGYDEWEATEDEYDSEGNLVEKGREAGNIYSIRPTECQWLEMACMRRKLERLSLEHHHHHH | soluble
11 | MLGPPSREKWSSDFPRWFDWVIETAEVYDYGRYPVKGMGVWMPYGFQIRRRVLEVVRGLLDSTGHEEVLFPLLIPEHLLRRESEHIRGFEGEVYWVTHGGREELDVKLALRPTSETSITYMETFWIKSYRQLPKKYYQVVSIFRYETKATRPMIRLREVTTFKEAHTVHESFEDAERQVLEAIEVYKAIFDRLLIPYVISKRPEWDKFAGALYTIAFDTIMPDGRALQIGTVHHLGQSFTRAFDFRIQMRDERLDHPWQTSYGVSDRVVASLIAVHGDDRGLVIPPSVAPIQVVVIPITPGDEEKRGKVLTYTAKAAEALEKAGLRVHVDDREWERPGAKFYYWEAKGVPIRVEIGLREAEQDTLTIARRDTLEKTEVPLGEAGNRIRELMAQIESSMRERAKSFFGERLLRTESLEEARDWVEGRRGIAEIPWCGRESCGLEMEERVNGKVLGTPWPEEPVEEGKRCPLCGRPAVAWIRLAKTY | soluble
12 | MGSDKIHHHHHHMRGRGMDIFISKKMRNFILLAQTNNIARAAEKIHMTASPFGKSIAALEEQIGYTLFTRKDNNISLNKAGQELYQKLFPVYQRLSAIDNEIHNSGRRSREIVIGIDNTYPTIIFDQLISLGDKYEGVTAQPVEFSENGVIDNLFDRQLDFIISPQHVSARVQELENLTISELPPLRLGFLVSRRYEERQEQELLQELPWLQMRFQNRANFEAMIDANMRPCGINPTIIYRPYSFMAKISAVERGHFLTVIPHFAWRLVNPATLKYFDAPHRPMYMQEYLYSIRNHRYTATMLQHIAEDRDGTSH | not soluble
13 | MRRLLLLVILFGCMSVINLAAGCNAQICTCPGGGYVTYGQYCPVNTPSYSAPPDAPPVDMYYFILDIKNNSYQLVDLKTKNFLTALDRSLSCDRSTQVCTVVSIREYLAVVVSEDNRLFIGKADAFYKGTGKKAEKAAIDDCKKGKEANGNGVMGDGIKGKKCRLIRLFSPNFKLENIETKQKYDLKVTGSL | not soluble
